# Patent US20200376013
# System: SDM-145
# Sequence of hMMP-9 (chain, as listed by the source): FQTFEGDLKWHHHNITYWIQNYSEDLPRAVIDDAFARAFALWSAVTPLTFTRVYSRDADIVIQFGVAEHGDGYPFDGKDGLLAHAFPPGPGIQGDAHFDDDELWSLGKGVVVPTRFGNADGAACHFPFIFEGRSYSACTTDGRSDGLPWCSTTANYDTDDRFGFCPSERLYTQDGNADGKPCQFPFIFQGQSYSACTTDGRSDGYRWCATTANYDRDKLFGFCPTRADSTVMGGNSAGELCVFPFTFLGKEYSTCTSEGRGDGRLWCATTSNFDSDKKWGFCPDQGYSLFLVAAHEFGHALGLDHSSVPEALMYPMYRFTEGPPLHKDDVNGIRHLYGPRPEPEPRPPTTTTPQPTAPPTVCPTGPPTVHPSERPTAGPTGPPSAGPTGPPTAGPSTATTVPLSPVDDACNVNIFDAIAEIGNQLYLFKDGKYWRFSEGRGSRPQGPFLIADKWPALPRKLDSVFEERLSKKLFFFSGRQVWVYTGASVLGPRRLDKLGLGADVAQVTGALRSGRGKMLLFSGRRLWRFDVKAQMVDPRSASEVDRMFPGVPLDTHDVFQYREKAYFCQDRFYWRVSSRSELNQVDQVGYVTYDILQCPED
Substance,"cleavage followed by LC-MS with fluorescence detection (ex 480 nm, em 560 nm), sodium acetate buffer pH 5.0, 37 C","cleavage followed by LC-MS with fluorescence detection (ex 480 nm, em 560 nm), TCNB buffer pH 7.5, 37 C"
"Cathepsin B, human liver",The cleavage reaction was complete after 17 hour.,–
hMMP-9,–,The cleavage reaction was complete after 17 hour.
